Changes are numbered by the printed parent chain.

Sequences and labels used below:
B1: W3XX115-T2U10.Z73-56.uIgG4V322 (Fc fusion)
chain 1: APTSSSTKKTQLQLEHLLLDLQMILNGINNYDNPKLTRMLTIKFYMPKKATELKHLQCLEEELKPLEEVLNLAQSKNFHLRPRKLISNINVIVLELKGSETTFMCEYADETATIVEFLNRWITFCQSILESKYGPPCPPCPAPEAAGGPSVFLFPPKPKDTLMISRTPEVTCVVVDVSQEDPEVQFNWYVDGVEVHNAKTKPREEQFNSTYRVVSVLTVLHQDWLNGKEYKCKVSNKGLPSSIEKTISKAKGQPREPQVYTLPPCQEEMTKNQVSLWCLVKGFYPSDIAVEWESNGQPENNYKTTPPVLDSDGSFFLYSRLTVDKSRWQEGNVFSCSVMHEALHNHYTQKSLSLSLGK
chain 2: QVQLVESGGGVVQPGGSLRLSCAASDSIDSLVNMGWYRQAPGKQRELVALIATYITHYADFVKGRFTISRDNSKNTLYLQMNSLRAEDTAVYYCYARNIIVDYWGQGTLVTVSSGGGGSGGGGSGGGGSQVQLVESGGGVVQPGGSLRLSCAASDSIDSLVNMGWYRQAPGKQRELVALIATYITHYADFVKGRFTISRDNSKNTLYLQMNSLRAEDTAVYYCYARNIIVDYWGQGTLVTVSSESKYGPPCPPCPAPEAAGGPSVFLFPPKPKDTLMISRTPEVTCVVVDVSQEDPEVQFNWYVDGVEVHNAKTKPREEQFNSTYRVVSVLTVLHQDWLNGKEYKCKVSNKGLPSSIEKTISKAKGQPREPQVCTLPPSQEEMTKNQVSLSCAVKGFYPSDIAVEWESNGQPENNYKTTPPVLDSDGSFFLVSRLTVDKSRWQEGNVFSCSVMHEALHNHYTQKSLSLSLG
B2: W3XX115-T2U10.Z73-58.uIgG4V322 (Fc fusion)
chain 1: B1 chain 1 with K84D, N88K
chain 2: B1 chain 2
B3: W3XX115-T2U10.Z73-63.uIgG4V322 (Fc fusion)
chain 1: B1 chain 1 with K84D, E95R
chain 2: B1 chain 2
B4: W3XX115-T2U10.Z73-62.uIgG4V322 (Fc fusion)
chain 1: B1 chain 1 with K84D, L94D
chain 2: B1 chain 2
B5: W3XX115-T2U10.Z73-64.uIgG4V322 (Fc fusion)
chain 1: B1 chain 1 with K84D, N119R
chain 2: B1 chain 2
B6: W3XX115-T2U10.Z73-59.uIgG4V322 (Fc fusion)
chain 1: B1 chain 1 with K84D, V91E
chain 2: B1 chain 2
B7: W3XX115-T2U10.Z73-60.uIgG4V322 (Fc fusion)
chain 1: B1 chain 1 with K84D, I92R
chain 2: B1 chain 2
B8: W3XX115-T2U10.Z73-61.uIgG4V322 (Fc fusion)
chain 1: B1 chain 1 with K84D, I92D
chain 2: B1 chain 2
B9: W3XX115-T2U0.E44-44.uIgG4V322 (Fc fusion)
chain: APTSSSTKKTQLQLEHLLLDLQMILNGINNYKNPKLTRMLTFKFYMPKKATGLKHLQCLEEELKPLEEVLNLAQSKNFHLRPRDLISNINVIVLELKGSETTFMCEYADETATIVEFLNRWITFCQSIIESKYGPPCPPCPAPEAAGGPSVFLFPPKPKDTLMISRTPEVTCVVVDVSQEDPEVQFNWYVDGVEVHNAKTKPREEQFNSTYRVVSVLTVLHQDWLNGKEYKCKVSNKGLPSSIEKTISKAKGQPREPQVYTLPPCQEEMTKNQVSLWCLVKGFYPSDIAVEWESNGQPENNYKTTPPVLDSDGSFFLYSRLTVDKSRWQEGNVFSCSVMHEALHNHYTQKSLSLSLG
heavy: EIQLQQSGPELVKPGASVKVSCKASGYSFTDYNMYWVKQSHGESLEWIGYIDPYNGGTRYNQKFKGKATLTVDKSSSTAFMHLNSLTSEDSAVYYCARNGHWDGAWFAYWGQGTLVTVSAASTKGPSVFPLAPCSRSTSESTAALGCLVKDYFPEPVTVSWNSGALTSGVHTFPAVLQSSGLYSLSSVVTVPSSSLGTKTYTCNVDHKPSNTKVDKRVESKYGPPCPPCPAPEAAGGPSVFLFPPKPKDTLMISRTPEVTCVVVDVSQEDPEVQFNWYVDGVEVHNAKTKPREEQFNSTYRVVSVLTVLHQDWLNGKEYKCKVSNKGLPSSIEKTISKAKGQPREPQVCTLPPSQEEMTKNQVSLSCAVKGFYPSDIAVEWESNGQPENNYKTTPPVLDSDGSFFLVSRLTVDKSRWQEGNVFSCSVMHEALHNHYTQKSLSLSLG
light: DIQMNQSPSSLSASLGDTITITCHASQNINVWLSWYQQKPGNIPKLLIYKASNLHTGVPSRFSGSRSGTGFTLTISSLQPEDIATYYCHQGQSYPFTFGSGTKLEIKRTVAAPSVFIFPPSDEQLKSGTASVVCLLNNFYPREAKVQWKVDNALQSGNSQESVTEQDSKDSTYSLSSTLTLSKADYEKHKVYACEVTHQGLSSPVTKSFNRGEC
B10: W3XX115-T2U0.E44-45.uIgG4V322 (Fc fusion)
chain: B9 chain with G52E, K76R
heavy: B9 heavy
light: B9 light
B11: W3XX115-T2U0.E44-43.uIgG4V322 (Fc fusion)
chain: B9 chain with K32D, G52E
heavy: B9 heavy
light: B9 light
B12: W3XX115-T2U0.E44-46.uIgG4V322 (Fc fusion)
chain: B9 chain with G52E, F78G
heavy: B9 heavy
light: B9 light
B13: W3XX115-T2U0.E44-6.uIgG4V322 (Fc fusion)
chain: B9 chain with G52E
heavy: B9 heavy
light: B9 light
B14: W3XX115-T2U0.E44-47.uIgG4V322 (Fc fusion)
chain: B9 chain with G52E, P82Y
heavy: B9 heavy
light: B9 light
B15: W3XX115-T2U0.E44-40.uIgG4V322 (Fc fusion)
chain: B9 chain with G52E, E110R
heavy: B9 heavy
light: B9 light

One assay concerns the target T1, IL-2Rβ/γc complex (intermediate affinity receptor) on primary human CD8+ T cells (human, UniProt P14784 27-551; P31785 23-369).
T1 sequence (looked up) 1: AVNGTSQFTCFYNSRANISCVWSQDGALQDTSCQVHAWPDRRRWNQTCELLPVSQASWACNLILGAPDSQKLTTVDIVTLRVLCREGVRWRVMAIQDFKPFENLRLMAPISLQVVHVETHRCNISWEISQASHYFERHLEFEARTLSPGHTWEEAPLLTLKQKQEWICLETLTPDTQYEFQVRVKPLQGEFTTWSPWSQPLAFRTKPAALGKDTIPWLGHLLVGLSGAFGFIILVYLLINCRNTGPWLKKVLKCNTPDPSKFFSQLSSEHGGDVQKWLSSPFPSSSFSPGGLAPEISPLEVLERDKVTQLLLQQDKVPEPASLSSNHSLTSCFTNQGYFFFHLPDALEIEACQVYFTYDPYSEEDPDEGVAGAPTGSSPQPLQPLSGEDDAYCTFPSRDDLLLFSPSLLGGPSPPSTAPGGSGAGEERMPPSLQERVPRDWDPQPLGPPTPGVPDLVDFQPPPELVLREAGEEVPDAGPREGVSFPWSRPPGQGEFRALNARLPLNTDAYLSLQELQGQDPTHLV
T1 sequence (looked up) 2: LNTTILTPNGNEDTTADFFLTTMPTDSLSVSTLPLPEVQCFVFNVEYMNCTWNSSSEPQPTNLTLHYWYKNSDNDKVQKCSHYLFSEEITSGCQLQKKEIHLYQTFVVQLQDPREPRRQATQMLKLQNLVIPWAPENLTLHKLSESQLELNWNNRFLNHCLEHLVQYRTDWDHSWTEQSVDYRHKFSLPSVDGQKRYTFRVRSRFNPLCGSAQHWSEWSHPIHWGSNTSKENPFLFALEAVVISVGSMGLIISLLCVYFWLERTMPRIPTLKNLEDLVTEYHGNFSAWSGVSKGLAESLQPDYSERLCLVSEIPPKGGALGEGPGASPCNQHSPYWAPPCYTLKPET
The assay can be described thus: cell-based or functional assay.
On to B1, for which the “Potency reduction, pSTAT5, human activated CD8+ T” value stood at 2.5 fold.

Regarding B2, the “Potency reduction, pSTAT5, human activated CD8+ T” value was 26.1 fold.

For the molecule B3, the “Potency reduction, pSTAT5, human activated CD8+ T” value was determined as 2.5 fold.

For the molecule B4, the “Potency reduction, pSTAT5, human activated CD8+ T” value turned out to be 6.5 fold.

Turning to B5, the “Potency reduction, pSTAT5, human activated CD8+ T” value is 58.7 fold.

Consider B6, for which the “Potency reduction, pSTAT5, human activated CD8+ T” value is 18.9 fold.

Take B7: the “Potency reduction, pSTAT5, human activated CD8+ T” value stood at 10 fold.

On to B8, for which the “Potency reduction, pSTAT5, human activated CD8+ T” value was determined as 14.2 fold.

For a further assay, the target named is T1, IL-2Rβ/γc complex (intermediate …). Put plainly: cell-based or functional assay. The source holds these as a separate data set.
Take B9: the “Potency reduction, pSTAT5, human primary CD8+ T” value was determined as 11.3 fold and the “pSTAT5 EC50, human primary CD8+ T” value came to 86.2 nM.

For B10, the “Potency reduction, pSTAT5, human primary CD8+ T” value stood at 31.4 fold and the “pSTAT5 EC50, human primary CD8+ T” value was found to be 240 nM.

For the molecule B11, the “Potency reduction, pSTAT5, human primary CD8+ T” value worked out at 17.6 fold and the “pSTAT5 EC50, human primary CD8+ T” value is 135 nM.

Take B12: the “Potency reduction, pSTAT5, human primary CD8+ T” value was found to be 7.6 fold and the “pSTAT5 EC50, human primary CD8+ T” value worked out at 58.4 nM.

B13: the “Potency reduction, pSTAT5, human primary CD8+ T” value was found to be 18.3 fold and the “pSTAT5 EC50, human primary CD8+ T” value is 145 nM.

Consider B14, for which the “Potency reduction, pSTAT5, human primary CD8+ T” value worked out at 27.6 fold and the “pSTAT5 EC50, human primary CD8+ T” value was 211 nM.

For the molecule B15, the “Potency reduction, pSTAT5, human primary CD8+ T” value stood at 36.9 fold and the “pSTAT5 EC50, human primary CD8+ T” value was 282 nM.

The record behind these values is patent publication US20260232769A1 (WUXI BIOLOGICS IRELAND, published 2026).
